Measured values from the supplement of paper PMC10126150.
± gives the standard deviation of the averaged measurements.

system: ATP; assay: switch fluorescence ratio, 500 uM ATP over buffer (Cy3 cluster intensity, sum of 5 cycles each) (fold (ratio)); higher = stronger signal-on switching upon ATP binding; sequences stand for … in TCGTCGGCAGCGTCAGATGTGTATAAGAGACAGTTTTTTTTTTTTTTTTTTTTTTTTT…TC; settings: aptamer strand: ATP DNA aptamer (quencher-CACCTGGGGGAGTATTGCGGAGGAAGG + anchor), 100 nM annealed; ATP concentration: 500 uM
Procedure, shortened: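 Per cluster, summed Cy3 intensity from the target cycles was divided by that from the buffer cycles to give the fluorescence ratio, then averaged per switch-domain sequence. Clusters outside 100-1000 RFU were excluded. The Cy3-labelled switching-strand clusters, on a modified Illumina MiSeq flow-cell, were annealed to 100 nM quencher-labelled ATP aptamer and imaged in selection buffer, then after 15 min with 500 uM ATP at 22 °C, for five cycles with NaOH stripping and re-annealing between them.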
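Further: ATP exposure 15 min at 22 °C before imaging.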

| Sequence | switch fluorescence ratio |
| --- | --- |
| CAAGGGGCAC | 1.02 ± 0.02 |
| CAAGGGGGCC | 1.14 ± 0.18 |
| CAAGGGGTAA | 0.9524 ± 0.0052 |
| CAAGGGGTGG | 0.996 ± 0.019 |
| CAAGGGTGGT | 1.03 ± 0.023 |
| CAAGGGTGTG | 0.988 ± 0.012 |
| CAAGTCTAGA | 0.995 ± 0.026 |
| CAAGTGAAGC | 0.9539 ± 0.005 |
| CAAGTGAGAA | 1.02 ± 0.049 |
| CAAGTGATAT | 1.05 ± 0.014 |
| CAAGTGCTGT | 0.98 ± 0.033 |
| CAAGTGTGAG | 0.985 ± 0.013 |
| CAAGTTCAAA | 1.013 ± 0.0055 |
| CAAGTTGACC | 1.01 ± 0.046 |
| CAAGTTGGCT | 0.987 ± 0.039 |
| CAAGTTGTTA | 0.964 ± 0.029 |
| CAATAGACGG | 1.04 ± 0.046 |
| CAATAGCACG | 1.03 ± 0.027 |
| CAATAGGGGA | 1.01 ± 0.017 |
| CAATATGTTT | 0.991 ± 0.051 |
| CAATATTAGT | 0.996 ± 0.024 |
| CAATCTGGGA | 0.978 ± 0.019 |
| CAATCTTTAA | 1.02 ± 0.034 |
| CAATGCGTAT | 1.01 ± 0.07 |
| CAATGGAGAG | 1 ± 0.018 |

| Sequence | switch fluorescence ratio |
| --- | --- |
| CAATGGAGGC | 0.976 ± 0.072 |
| CAATGGAGGG | 0.992 ± 0.033 |
| CAATGGCCTC | 1 ± 0.047 |
| CAATGGGGGC | 1.02 ± 0.045 |
| CAATGGTTAG | 0.998 ± 0.026 |
| CAATGTAGGG | 1.004 ± 0.0077 |
| CAATGTAGGT | 1.02 ± 0.02 |
| CAATTACGCA | 1.186 ± 0.00065 |
| CAATTAGCAT | 1.03 ± 0.017 |
| CAATTAGGTC | 0.994 ± 0.024 |
| CAATTATATG | 0.9961 ± 0.0071 |
| CAATTATGTA | 0.963 ± 0.016 |
| CAATTCATGG | 0.992 ± 0.073 |
| CAATTGCAGG | 1.01 ± 0.014 |
| CAATTGGGGT | 1.03 ± 0.06 |
| CACAAACCAG | 1.34 ± 0.37 |
| CACAATATGT | 1.07 ± 0.078 |
| CACAATCGGG | 1.005 ± 0.0088 |
| CACACGTACA | 1.769 ± 0.01 |
| CACACGTGGT | 0.9908 ± 0.0036 |
| CACAGAGGGG | 1.02 ± 0.028 |
| CACAGCAGCG | 1.048 ± 0.0029 |
| CACAGCTAAA | 1.09 ± 0.018 |
| CACAGGCCAA | 1.2 ± 0.029 |
| CACAGGGAGT | 1.03 ± 0.021 |

| Sequence | switch fluorescence ratio |
| --- | --- |
| CACATGCTCG | 1.05 ± 0.076 |
| CACATGCTGT | 0.995 ± 0.038 |
| CACATGTGCC | 1.01 ± 0.021 |
| CACATTTTTG | 0.995 ± 0.023 |
| CACCATCTTG | 0.987 ± 0.019 |
| CACCCCGGTT | 1.12 ± 0.051 |
| CACCCGGGCA | 1.07 ± 0.06 |
| CACCCTTTTC | 1.02 ± 0.024 |
| CACCGCGTCG | 1.21 ± 0.017 |
| CACCGGCTTT | 1.1 ± 0.14 |
| CACCGGTGTT | 1.02 ± 0.032 |
| CACCGTGTGG | 1.006 ± 0.0088 |
| CACCTAATGT | 1.06 ± 0.015 |
| CACCTGTCCG | 1.06 ± 0.02 |
| CACGAAGGGT | 1.02 ± 0.018 |
| CACGACATTG | 1.02 ± 0.018 |
| CACGAGATAA | 1.11 ± 0.079 |
| CACGCAAGTG | 1.03 ± 0.018 |
| CACGCACATG | 1.5 ± 0.076 |
| CACGCGGGGG | 1.03 ± 0.015 |
| CACGGAAGCG | 1.05 ± 0.032 |
| CACGGCAGCT | 1.09 ± 0.02 |
| CACGGCCGGA | 1.03 ± 0.052 |
| CACGGCTATG | 1.06 ± 0.046 |
| CACGGGGGAA | 1.03 ± 0.029 |

| Sequence | switch fluorescence ratio |
| --- | --- |
| CACGGTGGCT | 1.01 ± 0.03 |
| CACGGTGGGT | 0.9898 ± 0.0079 |
| CACGGTTTGC | 1.01 ± 0.021 |
| CACGTAAAAA | 1.16 ± 0.19 |
| CACGTATTGG | 1.11 ± 0.017 |
| CACGTGGGCA | 1.01 ± 0.048 |
| CACGTTGAAC | 1.11 ± 0.034 |
| CACTAAGGGA | 0.996 ± 0.014 |
| CACTAATTTT | 1.03 ± 0.019 |
| CACTAGAACC | 1.0319 ± 8.9e-05 |
| CACTCGTGGC | 1.01 ± 0.053 |
| CACTCTACGA | 1.41 ± 0.073 |
| CACTGCTTTT | 0.992 ± 0.023 |
| CACTGGAGAG | 1.039 ± 0.0048 |
| CACTGGCGAT | 1.06 ± 0.054 |
| CACTGGTTAA | 0.995 ± 0.013 |
| CACTGTCGAT | 1.016 ± 0.0097 |
| CACTTAAAAG | 1.05 ± 0.13 |
| CACTTAACAG | 1.1 ± 0.017 |
| CACTTAGGGC | 1.06 ± 0.024 |
| CACTTCATTT | 1.01 ± 0.013 |
| CACTTGCAGA | 0.999 ± 0.013 |
| CACTTGGTCG | 1 ± 0.068 |
| CACTTTCGT | 0.959 ± 0.029 |
| CACTTTTTGG | 0.999 ± 0.003 |

| Sequence | switch fluorescence ratio |
| --- | --- |
| CAGAAAAAAT | 0.978 ± 0.038 |
| CAGAAGGGGG | 1.11 ± 0.16 |
| CAGAAGGGTT | 0.997 ± 0.038 |
| CAGAATCAAC | 1.05 ± 0.014 |
| CAGAGATCTG | 0.9732 ± 0.0053 |
| CAGAGCCAAC | 1.11 ± 0.016 |
| CAGAGCTTTT | 1.05 ± 0.058 |
| CAGAGGATGC | 0.995 ± 0.0041 |
| CAGAGGGGTG | 1.05 ± 0.012 |
| CAGAGTAACA | 0.973 ± 0.03 |
| CAGAGTGGCA | 1.02 ± 0.027 |
| CAGATAGAAG | 0.999 ± 0.012 |
| CAGATAGACG | 1.04 ± 0.036 |
| CAGATAGCAG | 1.093 ± 0.0021 |
| CAGATATGGC | 1.05 ± 0.034 |
| CAGATCTGTA | 1.0087 ± 0.00071 |
| CAGATGAGGG | 1.005 ± 0.0057 |
| CAGATGGACG | 0.968 ± 0.032 |
| CAGATGGGGT | 0.9839 ± 0.001 |
| CAGATGGTCG | 0.938 ± 0.057 |
| CAGATGTGTT | 0.9728 ± 0.0031 |
| CAGCAAAAAG | 0.985 ± 0.025 |
| CAGCAACATG | 1.04 ± 0.024 |
| CAGCAGGCGG | 1.01 ± 0.024 |
| CAGCAGGCGT | 1.03 ± 0.021 |

| Sequence | switch fluorescence ratio |
| --- | --- |
| CAGCAGGGGC | 1.11 ± 0.024 |
| CAGCATCCTT | 1.02 ± 0.043 |
| CAGCATGTTT | 0.988 ± 0.024 |
| CAGCCAAAT | 1.043 ± 0.01 |
| CAGCCGACCG | 1.163 ± 0.0088 |
| CAGCCGGGTG | 1.3412 ± 0.0003 |
| CAGCCTTGTG | 1.013 ± 0.0079 |
| CAGCGAGGGG | 1.21 ± 0.32 |
| CAGCGAGTCC | 1.067 ± 0.0012 |
| CAGCGAGTGG | 1 ± 0.036 |
| CAGCGCTGGA | 0.996 ± 0.033 |
| CAGCGGACCG | 1.02 ± 0.028 |
| CAGCGTAGGT | 1.02 ± 0.043 |
| CAGCTACTTG | 1.05 ± 0.025 |
| CAGCTAGATA | 0.9987 ± 0.0065 |
| CAGCTAGCGG | 0.97 ± 0.025 |
| CAGCTAGGTT | 1.31 ± 0.39 |
| CAGCTAGTCC | 1.176 ± 0.0035 |
| CAGCTAGTGT | 0.984 ± 0.028 |
| CAGCTATTTA | 1.02 ± 0.025 |
| CAGCTTTTCA | 1.024 ± 0.006 |
| CAGGAACGAG | 1.004 ± 0.0035 |
| CAGGAAGCAG | 1.05 ± 0.09 |
| CAGGAATACT | 3.61 ± 3 |
| CAGGACGGGG | 1.01 ± 0.038 |

| Sequence | switch fluorescence ratio |
| --- | --- |
| CAGGACTATT | 0.995 ± 0.021 |
| CAGGACTGTT | 1.02 ± 0.011 |
| CAGGACTTAT | 1.02 ± 0.064 |
| CAGGAGAGCG | 0.9934 ± 0.0077 |
| CAGGAGGACT | 1.02 ± 0.015 |
| CAGGAGGATC | 1.027 ± 0.0074 |
| CAGGAGGGGG | 0.992 ± 0.053 |
| CAGGAGTCGT | 1 ± 0.038 |
| CAGGATATAT | 1.01 ± 0.027 |
| CAGGATCTAG | 1 ± 0.024 |
| CAGGATGCGT | 0.9611 ± 0.0076 |
| CAGGATTGGC | 1.07 ± 0.019 |
| CAGGCGTGTG | 0.995 ± 0.011 |
| CAGGCTACCT | 1.2 ± 0.092 |
| CAGGCTATTG | 0.988 ± 0.023 |
| CAGGGAAAAT | 0.982 ± 0.012 |
| CAGGGAAGG | 0.995 ± 0.016 |
| CAGGGACGGG | 1.03 ± 0.018 |
| CAGGGCGC | 1.02 ± 0.088 |
| CAGGGCGGAA | 1.02 ± 0.019 |
| CAGGGCGGGA | 0.936 ± 0.028 |
| CAGGGCGTGG | 0.948 ± 0.038 |
| CAGGGCGTTC | 0.9856 ± 0.0044 |
| CAGGGGAAAG | 1.01 ± 0.033 |
| CAGGGGAATG | 0.994 ± 0.021 |

| Sequence | switch fluorescence ratio |
| --- | --- |
| CAGGGGAGCA | 1.02 ± 0.039 |
| CAGGGGATGC | 0.987 ± 0.067 |
| CAGGGGCACG | 1.06 ± 0.04 |
| CAGGGGCTGG | 1.05 ± 0.03 |
| CAGGGGGACG | 0.923 ± 0.063 |
| CAGGGGGAGG | 1.03 ± 0.048 |
| CAGGGGGCAC | 1.05 ± 0.042 |
| CAGGGGGGCC | 1.03 ± 0.02 |
| CAGGGGGTTA | 1.02 ± 0.026 |
| CAGGGGGTTT | 1.01 ± 0.044 |
| CAGGGGTGCT | 1.03 ± 0.03 |
| CAGGGTACGG | 1.01 ± 0.052 |
| CAGGGTGAAC | 1.02 ± 0.019 |
| CAGGGTGCAT | 1.02 ± 0.051 |
| CAGGGTGCTG | 0.973 ± 0.033 |
| CAGGGTGTGC | 1.012 ± 0.00054 |
| CAGGGTTGAG | 0.997 ± 0.014 |
| CAGGGTTGCC | 0.996 ± 0.018 |
| CAGGGTTTTT | 0.999 ± 0.017 |
| CAGGTAAGAG | 0.987 ± 0.013 |
| CAGGTACGGG | 1.02 ± 0.025 |
| CAGGTAGTGC | 1.04 ± 0.096 |
| CAGGTCACTG | 0.965 ± 0.044 |
| CAGGTCATGC | 1.02 ± 0.058 |
| CAGGTCGTTT | 1.032 ± 0.0069 |
